Measured values from PMC6947841.

Molecular target: anti-TSLP-scFv-Fc-M4 (mutated recombinant antibody) (human)
Test: BLI

fold change of affinity against scFv-Fc-84: 10 fold
Substance: thymic stromal lymphopoietin (TSLP), standard recombinant human TSLP protein (from UniProt Q969D9 29-159) (ligand)
